Experimental data as given in article PMC12120876.

Target: nLUC‐TaWUS‐like‐5D (wheat (Triticum aestivum))
Assay: split reporter

SnRK1‐4B‐cLUC (natural protein) was tested, and the luminescence signal, fold over the other three pairs of co-infiltration samples was 5 fold.
